Experimental data taken from paper PMC11437124 (Nature Communications, 2024).
Positions count from the first letter of the chain named.

B1: 3.10A7 (antibody, V domains shown)
VH: AVQLVESGGGLVQPKESLKISCAASGITFSNAAMFWVRQAPGKGLEWVARIRTKPNNYATNYADSVKGRFTISRDDSKSMVYLQMDNLKTEDTAMYYCTAGTTVVPFDYWGQGVMVTVSS
VL: DIVMTQSPSSLAVSAGETVTIDCKSSQSLLYSGNQKTYLAWYQQKPGQSPKLLIYWASTRQSGVPDRFIGSGSGTDFTLTISSVQAEDLAIYYCQQYYDTPLTFGSGTKLEIK
B2: R19-11-41 (antibody, V domains shown)
VH: B1 VH with I27F, F35Y, N61Y, G101E, T102G, T103I, V104T, V105T, P106W
VL: B1 VL
B3: R19-11-40 (antibody, V domains shown)
VH: AVQLVESGGGLVQPKESLKISCAASGFTFSNAAMFWVRQAPGEGLEWVARIRTKPNSYATYYADSVKGRFTISRDDSKSMVYLQMDNLKTEDTAMYYCTADYPGMGFDSWGQGVMVTVSS
VL: B1 VL
B4: R19-11-37 (antibody, V domains shown)
VH: B3 VH with F35Y, E43K, S57N, T99I, D101S, Y102R, P103Y, M105Y, G106D, S109Y
VL: B1 VL
B5: 3.21B10 (antibody, V domains shown)
VH: AVQLIESGGGLVQPKGSLKISCAASGFTFSDAAMFWVRQAPGKGLEWIARIRTKPNNYATYYADSVRGRFTISRDDSKSMVYLQMDNLKTDDTAMYYCIEGVNYGGSPFVYWGQGTLVTVSS
VL: B1 VL with D22N, T37S, G72V, T100I, L110V
B6: R19-11-38 (antibody, V domains shown)
VH: B3 VH with F35Y, E43K, S57N, D101A, Y102F, P103Y, M105Y, G106Y, S109Y
VL: B1 VL
B7: R19-11-42 (antibody, V domains shown)
VH: AVQLVESGGGLVHPQESLKISCLASGLSFSSAAMYWVRQVPGKGLEWLARIRTKPNNYATFYADSVKGRFTISRDDSKSMVFLQMDDLNTEDTAIYYCTASVFTVAFEYWGQGVMVTVSS
VL: B1 VL
B8: antibody 3.18E5 (antibody, V domains shown)
VH: EVQLVETGGSLVQPGKSLKLTCATSGFPFSNVWMHWVRQSPEKQLEWIAHIKAKSDNYATYYAESVKGRFTISRDDSKTTIYLQMNSLKEADTAIYYCTGLDYWGQGVMVTVSS
VL: DTVLTQAPLSVSVTPGESASISCRSNKSLLGIRDITSLYWYLQKPGKSPQLLIYRMSNLASGVPDRFSGSGSETDFTLKISEVETEDVGVYYCAQFLRYPYTFGPGTKLELK
B9: antibody 3.50G1 (antibody, V domains shown)
VH: B8 VH with T80S, E90D, A91D
VL: B8 VL with Y41F, K112Q
B10: antibody 3.22B9 (antibody, V domains shown)
VH: AVQVVESGGGLVQPKGSLKISCAVSGFTFSDAAMHWVRQAPGKGLEWVARIRTKPNSYATYYADSVKGRFIISRDDSKNMVYLQMDNLKIEDTAMYYCTAGTTTAPFDYWGQGVMVTVSS
VL: DIVMIQSPSSVAVSAGETVTINCKSSQSLLYSGDHKNYLAWFQQKPGQSPKLLIYWASTRLSDVPDRVIGSGSGTDFTLTISSVQAEDLATYYCQQYYDTPLTFGSGTKVEIK
B11: antibody 3.27H7 (antibody, V domains shown)
VH: EVQLVETGGSLVQPGGSLKLTCATSGFPFSNVWLHWIRRSPEKQLEWVAQIKARSDNYATYYAESVKGRFIVSRDDSKTTIYLQMNNLKEEDTAIYYCTGLDYWGQGVMVTVSS
VL: DVVLTQAPLSVSVTPGESASISCRSSRSLLTSKGITSLYWYLQKPGMSPHLLIYRMSNLASGIPDRFSGSGSETDFTLKISEVEPEDVGVYYCAQFLVYPYTFGAGTKLELK
B12: antibody 3.41B10 (antibody, V domains shown)
VH: AVQLVESGGGLVQPKESLKISCEASGFTFTNAAMNWVRQAPGKGLEWVARIRTKPNNYRTYYADSVRGRFTISRDDSKSMVHLQMDNLKTEDTAMYYCTGEGPQGGFVYWGQGTLVTVSS
VL: B1 VL with A12T, E17G, D22N, N34D, Q35R, T37N, A57S, T100S, E111D
B13: hu3.10C2 G106hD (antibody, V domains shown)
VH: EVQLVESGGGLVQPGGSLKLSCATSGFPFSNVWMHWVRQASGKGLEWIAHIKAKSDNYATYYAESVKGRFTISRDDSKTTIYLQMNSLKTEDTAVYYCTDLDYWGQGTTVTVSS
VL: DVVMTQSPLSLPVTPGEPASISCRSSRSLLTSKGITSLYWYLQKPGQSPQLLIYRMSNLASGIPDRFSGSGSGTDFTLKISRVEAEDVGVYYCAQFLVYPYTFGPGTKVEIK
B14: hu3.10C2 G106hD/D116hE (antibody, V domains shown)
VH: B13 VH with D102E
VL: B13 VL
B15: hu3.10C2 I107h insertion/D116hE (antibody, V domains shown)
VH: EVQLVESGGGLVQPGGSLKLSCATSGFPFSNVWMHWVRQASGKGLEWIAHIKAKSDNYATYYAESVKGRFTISRDDSKTTIYLQMNSLKTEDTAVYYCTGILEYWGQGTTVTVSS
VL: B13 VL
B16: hu3.10C2 I107h insertion (antibody, V domains shown)
VH: B15 VH with E103D
VL: B13 VL
B17: hu3.10C2 D116hE (antibody, V domains shown)
VH: B13 VH with D100G, D102E
VL: B13 VL
B18: hu3.10C2 G106hD/I107h insertion/D116hE (antibody, V domains shown)
VH: B15 VH with G100D
VL: B13 VL
B19: Fab fragment of antibody 3.10C2 (Fab, V domains shown)
VH: B8 VH with T80S, A91D
VL: B8 VL with V11L, N26S, I32V

target: T1, human TREM2 extracellular domain (ECD) (Homo sapiens, UniProt Q9NZC2); assay: not given

Binding result, binds:
B1
B2
B3
B4
B5
B6
B7

target: T2, human TREM2 on live cells (Homo sapiens, UniProt Q9NZC2); assay: not given

Binding result, binds:
B1
B5

target: T2, human TREM2 on live cells; assay: flow cytometry on cells

Binding result, binds:
B8
B9
B10
B11
B12

target: T1, human TREM2 extracellular domain (ECD); assay: SPR
Target sequence in this assay (Q9NZC2 19-174): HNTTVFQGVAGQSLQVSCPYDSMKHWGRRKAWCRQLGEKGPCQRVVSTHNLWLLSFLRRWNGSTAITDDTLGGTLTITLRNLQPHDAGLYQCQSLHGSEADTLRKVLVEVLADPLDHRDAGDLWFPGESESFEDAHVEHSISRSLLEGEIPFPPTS

Binding result, binds:
B13
B14
B15
B16
B17
B18

Target: T3, TREM2 peptide 149-161, wild type (Homo sapiens, UniProt Q9NZC2)
T3 chain: SFEDAHVEHSISR
Assay: BLI

Binding result, binds:
B19
